B1: Disabled homolog 2 (Mus musculus), P98078 (parent)
chain: MSNEVETSTTNGQPDQQAAPKAPSKKEKKKGSEKTDEYLLARFKGDGVKYKAKLIGIDDVPDARGDKMSQDSMMKLKGMAAAGRSQGQHKQRIWVNISLSGIKIIDEKTGVIEHEHPVNKISFIARDVTDNRAFGYVCGGEGQHQFFAIKTGQQAEPLVVDLKDLFQVIYNVKKKEEDKKKVEEANKAEENGSEALMTLDDQANKLKLGVDQMDLFGDMSTPPDLNSPTESKDILLVDLNSEIDTNQNSLRENPFLTNGVTSCSLPRPKPQASFLPENAFSANLNFFPTPNPDPFRDDPFAQPDQSAPSSFDSLTSPDQKKASLSSSSTPQSKGPLNGDTDYFGQQFDQLSNRTGKPEAQGGPWPYPSSQTQQAVRTQNGVSEREQNGFHIKSSPNPFVGSPPKGLSVPNGVKQDLESSVQSSAHDSIAIIPPPQSTKPGRGRRTAKSSANDLLASDIFASEPPGQMSPTGQPAVPQSNFLDLFKGNAPAPVGPLVGLGTVPVTPPQAGPWTPVVYSPSTTVVPGAIISGQPPSFRQPLVFGTTPAVQVWNQSPSFATPASPPPPTVWCPTTSVAPNAWSSTSPLGNPFQSNNIFPPPTMSTQSSPQPMMSSVLATPPQPPPRNGPLKDIPSDAFTGLDPLGDKEVKEVKEMFKDFQLRQPPLVPSRKGETPPSGTSSAFSSYFNNKVGIPQEHVDHDDFDANQLLNKINEPPKPAPRQGVLLGTKSADNSLENPFSKGFSSSNPSVVSQPASSDPHRSPFGNPFA

Variants of: B1
Details: with sh3k1_human SH3KBP1, Q96B97
Sequence of sh3k1_human SH3KBP1, Q96B97 (Q96B97 whole entry): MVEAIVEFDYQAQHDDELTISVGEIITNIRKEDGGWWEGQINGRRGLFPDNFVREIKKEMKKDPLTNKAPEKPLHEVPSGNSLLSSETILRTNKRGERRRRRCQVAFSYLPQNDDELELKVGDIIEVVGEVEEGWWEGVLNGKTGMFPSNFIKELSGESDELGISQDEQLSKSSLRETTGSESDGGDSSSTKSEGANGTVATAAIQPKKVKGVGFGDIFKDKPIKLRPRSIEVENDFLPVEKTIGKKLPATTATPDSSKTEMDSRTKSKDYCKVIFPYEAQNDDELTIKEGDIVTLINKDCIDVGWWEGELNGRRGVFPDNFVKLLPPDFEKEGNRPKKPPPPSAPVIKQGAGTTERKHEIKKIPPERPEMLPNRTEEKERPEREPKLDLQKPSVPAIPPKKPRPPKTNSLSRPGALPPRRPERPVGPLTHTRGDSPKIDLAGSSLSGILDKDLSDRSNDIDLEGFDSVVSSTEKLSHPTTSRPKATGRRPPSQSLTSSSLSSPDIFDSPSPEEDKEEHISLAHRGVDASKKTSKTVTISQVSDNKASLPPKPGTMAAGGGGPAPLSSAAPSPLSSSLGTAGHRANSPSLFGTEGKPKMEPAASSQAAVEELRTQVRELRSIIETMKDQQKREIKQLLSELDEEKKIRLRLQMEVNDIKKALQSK

Variant	effect of a mutation on the interaction
R718A	disrupting interaction

Variants of: B1
Details: with sh3k1_human SH3KBP1, Q96B97
Remark: another data set of the same source

Variant	effect of a mutation on the interaction
R718A	decreasing interaction
